Source: patent publication US20230374144A1 (STAIDSON BEIJING BIOPHARMACEUTICAL, published 2023)
Positions count from the first letter of the chain named. Read-outs that look alike come from different tables or passages of the source.

Columns and labels:
human IL-4Rα on cells [1] = molecular target: T1, human IL-4Rα on cells (human, UniProt P24394 26-825); assay: cell-based or functional assay
IL-4R with mouse Fc-tag = molecular target: T2, IL-4R with mouse Fc-tag (human, UniProt P24394 26-232); assay: competitive ELISA: antibody dilutions with 0.5 µg/mL IL-4R-mouse Fc on plate-captured biotinylated IL-4, anti-mouse-Fc-HRP
T2 construct: not shown: mouse Fc-tag
Description: Competitive ELISA: The second assay was designed to identify the anti-IL-4Rα antibodies that were capable of inhibiting the binding of hIL-4 to hIL-4Rα, as measured by competitive ELISA. Briefly, a 96-well plate was coated with 100 μL, 2.5 μg/mL SA (Streptavidin) solution, and incubated overnight at 4° C., followed by washed with TBST. Biotinylated IL-4 with the final concentration of 2 μg/mL was added into the plate and incubated at 37° C. for 1 hour. Then the plate was washed with TBST. The anti-IL-4Rα antibody samples were first diluted to 10 μg/mL, and 1004, of the sample was added to the first row of wells. 10 μg/mL anti-IL-4Rα antibody samples were then serially diluted at a 1:2 ratio and added to each of the remaining rows of wells. 504 of 0.5 μg/mL IL-4R with mouse Fc-tag was added to each well. After incubating for 1 hour at 37° C., the wells were washed with TBST 6 times. 100 µL of anti-mouse-Fc-HRP (1:10,000) was then added to each well and incubated for 1 hour at 37° C. The wells were washed with TBST 6 times before adding 1004/well of TMB, and incubated for 5-10 minutes at 37° C. 2M H₂SO₄ was used to stop the reaction. The ELISA results (OD450) were read, and the binding curves were generated by GraphPad Prism 5 software (GraphPad Software). Reference antibody Dupilumab (Regeneron, anti-IL-4Rα antibody) and AMG317 (Amgen, anti-IL-4Rα antibody) were used as positive controls, Human IgG4, kappa Isotype Control (Cat #HG4K, Sino Biological Inc.) was used as negative control, abbreviated as Human IgG4 in FIG. 1.

human IL-4Rα on cells [2] = molecular target: T1, human IL-4Rα on cells; assay: cell-based or functional assay; remark: listed apart in the source
[3] = molecular target: T3, recombinant human IL-4Rα (extracellular domain, tagged) (human, UniProt P24394 26-232); assay: SPR, Biacore T200; antibody (human IgG4) on the sensor chip, human IL-4Rα at 0.625-12.5 nM
T3 construct: it is written second here only for want of that; also called hIL-4Rα; not shown: His-tag or other conventionally used tag
Description: The binding affinity of the anti-IL-4Rα antibodies (reformatted as human IgG4) to human IL-4Rα was characterized using Biacore T200 (GE). The full-length anti-IL-4Rα antibodies were stabilized on sensor chip CMS. The affinities for human IL-4Rα at various concentrations were measured. […] Using the SPR technology, the association and dissociation rates were measured, and binding affinity was determined.

human IL-4Rα on cells [4] = molecular target: T1, human IL-4Rα on cells; assay: cell-based or functional assay; remark: listed apart in the source
human IL-4Rα on cells [5] = molecular target: T1, human IL-4Rα on cells; assay: cell-based or functional assay; remark: listed apart in the source
human IL-4Rα on cells [6] = molecular target: T1, human IL-4Rα on cells; assay: cell-based or functional assay; remark: listed apart in the source
human IL-4Rα on cells [7] = molecular target: T1, human IL-4Rα on cells; assay: cell-based or functional assay; remark: listed apart in the source
human IL-4Rα on cells [8] = molecular target: T1, human IL-4Rα on cells; assay: cell-based or functional assay; remark: listed apart in the source
human IL-4Rα on cells [9] = molecular target: T1, human IL-4Rα on cells; assay: cell-based or functional assay; remark: listed apart in the source
human IL-4Rα on cells [10] = molecular target: T1, human IL-4Rα on cells; assay: cell-based or functional assay; remark: listed apart in the source

Molecule: AMG317 (antibody)
- IC50(nM), neutralization of hIL-13 (4 ng/ml), HEK-Blue IL-4/IL-13 STAT6-SEAP reporter cells (human IL-4Rα on cells [1]): 0.649 nM
- IC50 (IL-4R with mouse Fc-tag): 0.0891 µg/mL

B1: C27-7-33 (antibody, human IgG4, V domains shown)
VH: EVQLLESGGGLVQPGGSLRLSCAASGFTLSSYAMHWVRQAPGKGLEYVSGISPSGVSTYYANSVKGRFTISRDNPKNTLFLQMSSLRAEDTAVYYCVRVKVKYRGGMDVWGQGTTVTVSS
VL: EIVLTQSPGTLSLSPGERATLSCRASQGISSAYLAWYQQKPGQAPRLLIYGTSRRATGIPDRFSGSGSGTDFTLTISRLEPEDFAVYYCQLYGATSVTFGQGTKLEIK
- IC50(nM), inhibition of TARC release in human PBMCs induced by hIL-13 (200 ng/mL) (human IL-4Rα on cells [2]): 0.0576 nM
- Kd [3]: 1.01 nM
- koff [3]: 0.000134 s⁻¹
- kon [3]: 134000 M⁻¹ s⁻¹
- IC50(nM), neutralization of hIL-4 (1.2 ng/ml), HEK-Blue IL-4/IL-13 STAT6-SEAP reporter cells (human IL-4Rα on cells [4]): 0.0541 nM
- IC50(nM), neutralization of hIL-13 (4 ng/ml), HEK-Blue IL-4/IL-13 STAT6-SEAP reporter cells (human IL-4Rα on cells [5]): 0.0343 nM
- IC50(nM), inhibition of TARC release in human PBMCs induced by hIL-4 (32 ng/mL) (human IL-4Rα on cells [6]): 0.916 nM
- IC50(nM), inhibition of hIL-4 (1 ng/mL) dependent CD23 upregulation on B cells in human PBMCs (human IL-4Rα on cells [7]): 0.0303 nM
- IC50(nM), inhibition of IL-13 (10 ng/mL) dependent TF-1 cell proliferation (human IL-4Rα on cells [8]): 0.0902 nM
- IC50 (IL-4R with mouse Fc-tag): 0.0582 µg/mL
- IC50(nM), inhibition of hIL-13 (20 ng/mL) dependent CD23 upregulation on B cells in human PBMCs (human IL-4Rα on cells [9]): 0.179 nM
- IC50(nM), inhibition of IL-4 (2 ng/mL) dependent TF-1 cell proliferation (human IL-4Rα on cells [10]): 0.0311 nM

B2: C27-47-56 (antibody, human IgG4, V domains shown)
VH: B1 VH with S54T, V56T, V101G, K102A
VL: B1 VL with G28S, I29V, T95S
- IC50(nM), inhibition of TARC release in human PBMCs induced by hIL-13 (200 ng/mL) (human IL-4Rα on cells [2]): 0.0913 nM
- Kd [3]: 1.82 nM
- koff [3]: 0.000195 s⁻¹
- kon [3]: 107000 M⁻¹ s⁻¹
- IC50(nM), neutralization of hIL-4 (1.2 ng/ml), HEK-Blue IL-4/IL-13 STAT6-SEAP reporter cells (human IL-4Rα on cells [4]): 0.103 nM
- IC50(nM), neutralization of hIL-13 (4 ng/ml), HEK-Blue IL-4/IL-13 STAT6-SEAP reporter cells (human IL-4Rα on cells [5]): 0.0966 nM
- IC50(nM), inhibition of TARC release in human PBMCs induced by hIL-4 (32 ng/mL) (human IL-4Rα on cells [6]): 1.2 nM
- IC50(nM), inhibition of hIL-4 (1 ng/mL) dependent CD23 upregulation on B cells in human PBMCs (human IL-4Rα on cells [7]): 0.0814 nM
- IC50(nM), inhibition of IL-13 (10 ng/mL) dependent TF-1 cell proliferation (human IL-4Rα on cells [8]): 0.0849 nM
- IC50 (IL-4R with mouse Fc-tag): 0.0651 µg/mL
- IC50(nM), inhibition of hIL-13 (20 ng/mL) dependent CD23 upregulation on B cells in human PBMCs (human IL-4Rα on cells [9]): 0.698 nM
- IC50(nM), inhibition of IL-4 (2 ng/mL) dependent TF-1 cell proliferation (human IL-4Rα on cells [10]): 0.0509 nM
